Test results published in patent US20250313621A1 (NXERA PHARMA UK, published 2025).
Substitutions are numbered along the chain they refer to. Each block holds one binder with its values, some of them ahead of it.

Experiments:
[1] = target: T1, Cynomolgus PAR2 on BacMam-infected HEK293 cells (cynomolgus); test: flow cytometry on HEK293F-cynoPAR2 (3.0E+06 cells/mL, w/ NaN3), overnight at about 5 C, S/BG [continued]
T1 construct: whole, on cells; also called cyno PAR-2; Cyno PAR2

[2] = target: T2, Wildtype human PAR2 expressed on cells (human, UniProt P55085 37-397); test: flow cytometry on HEK293F-humanPAR2 (3.0E+06 cells/mL), S/BG [continued]
T2 construct: also called huPAR2; WT FL-huPAR2
T2 sequence: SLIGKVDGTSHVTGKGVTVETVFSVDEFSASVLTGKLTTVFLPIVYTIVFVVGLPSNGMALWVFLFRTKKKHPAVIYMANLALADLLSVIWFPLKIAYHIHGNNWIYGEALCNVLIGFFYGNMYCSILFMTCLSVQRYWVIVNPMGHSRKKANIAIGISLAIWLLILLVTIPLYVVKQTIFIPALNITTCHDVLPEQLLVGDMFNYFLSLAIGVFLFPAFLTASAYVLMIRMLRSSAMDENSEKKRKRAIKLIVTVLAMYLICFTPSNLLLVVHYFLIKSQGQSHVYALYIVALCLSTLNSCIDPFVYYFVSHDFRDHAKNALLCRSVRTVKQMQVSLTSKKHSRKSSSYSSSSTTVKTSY

[3] = target: T3, PAR2-3: P157: 1-377, glycosylated, pBacMamHisStrepII, full length (human, UniProt P55085 26-377); test: SPR Biacore; IgG captured on anti-human IgG, 100 nM PAR2 analyte; 1:1 model
T3 construct: detergent-solubilised analyte in SPR, or on infected cells in flow cytometry; also called FL-N PAR2 StaR; FL-N StaR; not shown: C-terminal StrepII and deca-histidine tags
T3 sequence: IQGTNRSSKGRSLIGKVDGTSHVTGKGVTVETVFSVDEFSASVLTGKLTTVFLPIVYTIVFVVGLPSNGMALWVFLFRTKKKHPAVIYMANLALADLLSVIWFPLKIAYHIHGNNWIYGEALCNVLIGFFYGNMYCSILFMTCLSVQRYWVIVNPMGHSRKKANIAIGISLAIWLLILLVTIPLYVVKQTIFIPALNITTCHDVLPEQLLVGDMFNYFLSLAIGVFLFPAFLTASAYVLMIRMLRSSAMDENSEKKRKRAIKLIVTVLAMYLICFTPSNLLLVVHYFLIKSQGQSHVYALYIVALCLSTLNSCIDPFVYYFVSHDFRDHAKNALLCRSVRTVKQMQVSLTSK
Description: The antibodies were captured on anti-human IgG chip surface followed by injection of 100 nM PAR2. The data were fitted to 1:1 interaction model except for clone ‘Y021160’ in which case heterogeneous ligand model was used and component with slow dissociation was used for comparison.
For three purified IgG1f_AEASS clones Y021171, Y022054 and Y022063 affinities to human PAR2-3 variant (P157: 1-377, glycosylated, pBacMamHisStrepII, full length) were determined by SPR immobilizing the IgG and probing with detergent (LMNG/CHS) solubilized FL-N PAR2 StaR. Affinities were 22 nM and 20 nM for Y022063 and Y021171, respectively.

[4] = target: T4, Human PAR2 StaR incorporated into nanodiscs (construct not stated) (human, UniProt P55085 37-377, limits assumed); test: SPR Biacore; human PAR2 StaR incorporated into nanodiscs
T4 construct: also called nanodisc-embedded StaR
T4 sequence: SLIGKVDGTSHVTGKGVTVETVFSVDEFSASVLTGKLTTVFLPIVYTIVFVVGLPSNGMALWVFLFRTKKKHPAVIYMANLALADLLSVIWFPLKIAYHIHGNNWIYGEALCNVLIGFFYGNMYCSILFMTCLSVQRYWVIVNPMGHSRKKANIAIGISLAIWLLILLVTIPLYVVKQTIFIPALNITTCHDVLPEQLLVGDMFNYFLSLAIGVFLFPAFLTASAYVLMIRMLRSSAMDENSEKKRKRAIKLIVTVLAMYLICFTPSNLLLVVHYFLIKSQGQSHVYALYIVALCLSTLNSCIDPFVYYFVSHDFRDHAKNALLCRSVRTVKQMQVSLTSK

[5] = target: T2, Wildtype human PAR2 expressed on cells; test: cell-based or functional assay
[6] = target: T3, PAR2-3: P157: 1-377, glycosylated, …; test: SPR Biacore T200; IgG captured on anti-human IgG, 250 nM PAR2 analyte; 1:1 model
Description: The assay of PAR2 interaction with anti-PAR2 antibodies was carried out using a Biacore T200 instrument (GE Healthcare). Anti-human IgG antibody (Human Antibody Capture Kit, GE Healthcare) was immobilised by amine coupling on a sensor chip CM3 (GE Healthcare) to a surface density of 3500 to 4500 resonance units (RU). Immobilisation was carried out at 25° C. in HBS-EP+ buffer (GE Healthcare). The buffer was then changed to 50 mM HEPES, pH 7.5, 150 mM NaCl, 0.02% LMNG, 0.002% CHS. Each cycle of the PAR2-antibody interaction assay consisted of antibody capture (100 nM antibody injected for 2 min at a flow rate of 5 μL/min), PAR2 injection (blank or 250 nM, with contact and dissociation times of 2 and 3 minutes, respectively, at a flow rate of 20 μl/minute), and chip surface regeneration (30 seconds at 20 μl/minute) using the regeneration solution from Human Antibody Capture Kit (GE Healthcare). […] Measurements between each experimental data set were within the acceptable margins for this methodology.
The antibodies were captured on anti-human IgG chip surface followed by injection of 250 nM PAR2. The data were fitted to 1:1 interaction model.

[7] = target: T2, Wildtype human PAR2 expressed on cells; test: cell-based or functional assay; remark: listed apart in the source
[8] = target: T5, Mouse PAR2 on Flp-In CHO cells (mouse, UniProt P55086 39-399); test: cell binding, flow cytometry/IntelliCyt
T5 construct: whole, on cells
T5 sequence (looked up): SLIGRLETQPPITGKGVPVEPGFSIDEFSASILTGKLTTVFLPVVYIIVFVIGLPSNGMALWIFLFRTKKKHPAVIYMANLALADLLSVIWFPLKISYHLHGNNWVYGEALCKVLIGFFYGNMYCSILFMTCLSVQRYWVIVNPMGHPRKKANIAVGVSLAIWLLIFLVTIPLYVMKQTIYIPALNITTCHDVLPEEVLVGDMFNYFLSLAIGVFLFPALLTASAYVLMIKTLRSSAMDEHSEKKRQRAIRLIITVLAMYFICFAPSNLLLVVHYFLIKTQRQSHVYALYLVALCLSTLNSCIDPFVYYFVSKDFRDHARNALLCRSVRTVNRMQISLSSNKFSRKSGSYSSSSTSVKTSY

[9] = target: T2, Wildtype human PAR2 expressed on cells; test: cell-based or functional assay; remark: listed apart in the source

- EC50 (read off the curve) [1]: ~2 nM
B1: Fab Y022870 (Fab, V domains shown)
VH: EVQLLESGGGLVQPGGSLRLSCAASGFSFSRYAITWVRQAPGKGLEWVSTISALGLETYYAESVRGRFTISRDNSKNTLYLQMNSLRAEDTAVYYCARGFHYTHSGKRYYYPFDIWGQGTLVTVSS
VL: QSALTQPASVSGSPGQSITISCTGTSSDVGSYNLVSWYQQHPGKAPKLMIYEGSKRPSGVSNRFSGSKSGNTASLTISGLQAEDEADYYCSQYATFIAFAVFGGGTKLTVLG

- EC50 (read off the curve) [2]: ~10 nM
B2: Fab Y022877 (Fab, V domains shown)
VH: B1 VH with S28T, I34M, A53G, L56Q, T58A, E62G, R65K
VL: B1 VL

- EC50 (read off the curve) [1]: ~4 nM
B3: Fab Y022883 (Fab, V domains shown)
VH: B1 VH with S30T, T35S, T50V, A53G, L54H, L56S, T58A, Y59N, R65K
VL: B1 VL

- Kd [3]: 70 nM
- koff [3]: 0.029 s⁻¹
- kon [3]: 410000 M⁻¹ s⁻¹
- Kd [4]: 31 nM
- koff [4]: 0.037 s⁻¹
- kon [4]: 1.2e+06 M⁻¹ s⁻¹
- % Max Inhibition, AP challenge, IP-One [5]: 163%
- Kd [6]: 20 nM
- koff [6]: 0.011 s⁻¹
- kon [6]: 530000 M⁻¹ s⁻¹
- % Max Inhibition AP, IP-One [7]: 32%
- binding result [8]: no binding
- % Max Inhibition, Bovine Trypsin challenge, IP-One [9]: 19%
B4: Y021171 (antibody, V domains shown)
VH: EVQLVESGGGLVKPGGSLRLSCAASGFTFSSYSINWVRQAPGKGLEWVSSISSSSSYTYYAESVKGRFTISRDNAKNSLYLQMNSLRAEDTAVYYCARAASGFAIFDYWGQGTLVTVSS
VL: DIQMTQSPSSVSASVGDRVTITCRASQGISSWLAWYQQKPGKAPKLLIYAASSLQSGVPSRFSGSGSGTDFTLTISSLQPEDFATYYCQQTHYVPLTFGQGTKVEIKR
